Reference: patent US20220089784A1

B1: 19A9 scFv (scFv)
scFv: EVQLQQPGSELARPGASVKLSCKASGYTFTSYPITWVKQTTGQGLEWIGEIYPRSGNTYYNEKFKGKATLTADKSSSTAYMELRSLTSEDSAVYFCARDYYDYAGGGRGYWGQGTTLTVSSVDLKSGGSTSGSGKPGSGEGSSGSARDIVLTQSPAIMSASPGGKITITCSASSSVSYMHWFQQKPGTSPKLWIYSTSNLASGVPARFSGSGSGTSYSLTISRMEAEDAATYYCQQRSSYPYTFGGGTKLEIK
B2: 19D2 scFv (scFv)
scFv: EVQLQQSGGELARPGSSVKLSCKASGYSFTGYSLTWVKQTPGQGLEWIGEIYPRSGNTYYNENFQGKATLTADESSSTAYMELRSLTSEDSAVYFCARDFYDYDGGGRGYWGQGTTLTVSSVDLKSGGSTSGSGKPGSGEGSSGSARDIVMTQTPAIMSASPGEKVTITCSASSSVSYMHWYQQKPGTSPKLWIYSTSNLASGVPARFSGSGSGTSYSLTISRMEAEDAATYYCQQRSSYPYTFGGGTKLEIK
B3: 19D22 scFv (scFv)
scFv: QIQLLQSGAELVRPGTSVKMSCKAAGYPFTSYWMGWVKQRPGHGLEWIGDIYPGGPYTNYNEKFKGKATLTADTSSSTAYMQFSSLTSEDSAIYYCALYGQVGSYAMDYWGQGTSVTVSSVDLKSGGSTSGSGKPGSGEGSSGSARQIVLTQSPAIMSASPGEKVTMTCSASSSVSYMYWYQQKPGSSPRLLIYDTSNLASGVPVRFSGSGSGTSYSLTISRMEAEDAATYYCQQWSSYPPITFGAGTKLEIK
B4: 26B2 scFv (scFv)
scFv: DVQLQESGPELVKPGASVKISCKASGYTFADYYINWVKQSHGKSLEWIGDFNPNNGDHSYNQKFKDKATLTVDESSNTAYMELRSLTSEDSAVYYCTREFYYYFDVWGTGTSVTVSSVDLKSGGSTSGSGKPGSGEGSSGSARDIEMTQTPAIMSASPGEKVTMTCSASSSVSSRYLHWYQQKSGASPKLWIYGTSNLASGVPARFSGSGSGTSYSLTISNVEAEDAATYYCQQYHSDPLTFGAGTKLEIK
B5: 26D9 scFv (scFv)
scFv: DVQLQESGAELVKPGASVKLSCKASGFTFTDYWMHWVKQRPGQGLEWIGMIHPYNGDNNYHEKFKSKATLTVDKSSSTAYMQLSSLTTEDSAVYYCVRNDYDPYYYALDYWGQGTSLTVSAVDLKSGGSTSGSGKPGSGEGSSGSARQIVLTQSPAIMSASPGEKVTMSCRASSSVSYVYWYQQKPGSSPKPWIYRTSNLASGVPVRFSGSGSGTSYSLTISRVEAEDAATYYCQQWSSYPPTFGGGTKLEIK
B6: 26E6 scFv (scFv)
scFv: EVQLQQSGPELVKPGASVKISCKASGYTFADYYINWVKQSHGKSLEWIGDFNPNNGDHSYNQKFKDKATLTVDESSNTAYMELRSLTSEDSAVYYCTREFYYYFDVWGTGTTVTVSSVDLKSGGSTSGSGKPGSGEGSSGSARDIVMSQSPLSLPVSLGDQAFISCRFSQSIVHSNGNTYLEWYLQKPGQSPKLLIYKVSNRFSGVPDRFSGSGSGTDFTLKISRVEAEDLGVYYCFQGSHVPYTFGGGTKLEIK
B7: 26G5 scFv (scFv)
scFv: EVQLQESGPGLAKPSQTLSLTCSVTGYSITSDYWNWIRKFPGNKLEYMGYISYSGSTYYNPSLKSRISITRDTSKNQYYLQLNSVTTEDTATYYCARSFYDGYLYFDYWGQGTTVTVSSVDLKSGGSTSGSGKPGSGEGSSGSAREIVLTQSPAILSASPGEKVTMTCSASSSVSYMYWYQQKPGSSPRLLIYDTSNLASGVPARFSGSGSGTSYSLTISRVEAEDAATYYCQQWSSYPPTFGDGTRLEIK
B8: 18D10 scFv (scFv)
scFv: QVQLKQSGIEVMKPGASVKLSCKASGYPFTAYWIEWVKQRPGHGLEWIGEFLPGGISTNFNEKFKGKATFSADTSSNSAYIQLNSLTTEDSAIYYCVLTGTGFDYWGQGTSVTVSSVDLKSGGSTSGSGKPGSGEGSSGSARENVLTQSPAIMSASPGEKVTMTCSASSSVSYMHWYQQKSGTSPKRWIYDTSKLASGVPARFSGSGSGTSYSLTISSMEAEDAATYYCQQWSSNPLTFGAGTKLELK
B9: 18E5 scFv (scFv)
scFv: EVQLQESGPELVKPGASVKISCKASGYTFTDHNMDWVKQSLGKSLEWIGDINPNNGGAVYNQNFKGKATLTVDKSSSTAYMELRSLTSEDTAVYYCARYGYYGYFDYWGQGTTLTVSSVDLKSGGSTSGSGKPGSGEGSSGSARQIVLTQSPAIMSASPGEKVTMTCRASSSVSSSYLHWYQQKPGSSPKLWIYSTSNLASGVPARFSGSGSGTSYSLTISSVEAEDAATYYCQQYDSSPSTFGAGTKLEIK
B10: 18A6 scFv (scFv)
scFv: EVQLQQSGPELVKPGASVKISCKASGYTFTDNYINWVKQRPGQGLEWIGWIYPGSGNTKYNEKFKGKATLTVDTSSNTAYMQLTGLASDDSAVYFCARVNFYVSWDYWGQGTSVTVSSVDLKSGGSTSGSGKPGSGEGSSGSAREIVLTQSPAIMSASPGEKVTMTCSASSSISYMHWFQQKPGMSPKRRIFDTSKLASGVPARFSGSGSGTSYSLTISSMEAEDAGTYYCHQRSSYPFTFGGGTKLELK
B11: 19B6 scFv (scFv)
scFv: QVQLQQSGAELVKPGASVKISCKASGYTFTDNYINWVKQRPGQGLEWIGWIHPGSGNAKYNEKFRAKATLTVDTSSNTAYMQLSSLTSEDSAVYFCARVGFRVNFDYWGQGTTLTVSSVDLKSGGSTSGSGKPGSGEGSSGSARQIVLTQSPAIMSASPGEKVTMTCSASSSLSYVHWYQQKPGSSPKPWIYATSNLVSGVPARFSGSRSGTSYSLTISSMEAEDAATYYCQQWSSYPPTFGAGTKLEIK
B12: 16B3 scFv (scFv)
scFv: EVQLQQSGPELVKPGASVKITCKASGYTFTDNNMDWVKQSHGKSLEWIGDINPNNGGSIYNQKFKGKASLTLDKSSSTAYMELRSLTSEDTAVYYCARWGYYGSLAYWGQGTLVTVSSVDLKSGGSTSGSGKPGSGEGSSGSARQNVLTQSPAIMSASPGEKVTMTCSASSSVSSRYLHWYQQKSGASPKLWIYGTSNLASGVPARFSGSGSGTSYSLTISSVEAEDAATYYCQQYHSDPLTFGGGTKLEIK
B13: 18F2 scFv (scFv)
scFv: EVQLQQSGPELMKPGASVKISCKASGYAFSRSWMNWVKQRPGKGLEWIGRIYPGDGDTNYNGKFKDKASLTADTSSSTAYMQLSSLTSEDSAVYFCTKSEGYYHNLGAYWGQGTTVTVSSVDLKSGGSTSGSGKPGSGEGSSGSAREIVLTQSPAIMSASPGQKVTITCSASSSVSYMHWYQQKSGTSPKRWIYDTSKLASGVPARFSGSGSGTSYSLIISSMEAEDAATYYCQQWRSNPPTFGGGTRLEIK
B14: 8DC3 scFv (scFv, V domains shown)
VH: QVQLVQSGGGLVKPGGSLRLSCAASGFTFSSHSMNWVRQAPGKGLEWVSSISSSSSYIYYADSVKGRFTISRDNSKNSLYLQLNSLRAEDTAVYYCARGDHDFRSGYYGMDVWGQGTMVTVSS
VL: AELTQDPAVSVALGQTVRITCQGDSLRNYYASWYQQKPGQAPVLVIYGKNIRPSGIPDRFSGSSSGNTASLTITGAQAEDEADYYCNSRDSNGNHYVFGTGTKVTVL

These binders were tested against BoNT/B2 (Clostridium botulinum) (assay: yeast scFv FACS).
Binder B1 has a Kd of 0.88 nM.
B2 gave a Kd of 1.85 nM.
In the case of B3, the Kd is reported as 5 nM.
B4 showed a Kd of 5.43 nM.
B5 showed a Kd of 0.467 nM.
With B6 the Kd was 17.6 nM.
For B7, the Kd was 30.5 nM.
With B8 the Kd was 5.57 nM.
B9 was tested, and the Kd was 2.66 nM.
Work on B10 yielded a Kd of 32.4 nM.
Work on B11 yielded a Kd of 35.6 nM.
With B12 the Kd was 0.75 nM.
With B13 the Kd was 8.75 nM.

These binders were tested against BoNT/C1 or other subtypes (assay: yeast scFv FACS).
With B14 the Kd was greater than 20 nM.

Each binder was assayed against BoNT/B4 (Clostridium botulinum) (assay: yeast scFv FACS).
B1 gave a Kd of 1.04 nM.
B2 showed a Kd of 1.84 nM.
B3 showed a Kd of 5.24 nM.
For B8, the Kd was 4.2 nM.
B9 was tested, and the Kd was 1.36 nM.
B10 was tested, and the Kd was 30.6 nM.
B11 showed a Kd of 43.5 nM.
For B12, the Kd was 0.71 nM.

The binders below were run against BoNT/B3 (Clostridium botulinum) (assay: yeast scFv FACS).
For B1, the Kd was 1.18 nM.
Binder B2 has a Kd of 1.47 nM.
B3 showed a Kd of 3.77 nM.
B8 showed a Kd of 3.35 nM.
B9 gave a Kd of 2.56 nM.
B10 was tested, and the Kd was 27.9 nM.
In the case of B11, the Kd is reported as 866 nM.
For B12, the Kd was 0.49 nM.
